The record followed here is publication PMC3931819.

In experiment [1] the target is 6X(His)-tagged P-domain of the VP1 capsid protein of norovirus Norwalk strain (GI.1 genotype), with the CNGRC cysteine-rich domain (Norwalk virus (GI.1 genotype)). The experiment is described as follows: cross-linking; 5 ug protein in HEPES 20 mM pH 7, NaCl 100 mM, MgCl2 10 mM with 0%, 0.5% or 1% glutaraldehyde, 5 min at 37°C; samples with or without boiling resolved on 10% SDS-PAGE.

Experiment [2] deals with 6X(His)-tagged P-domain of the VP1 capsid protein of norovirus VA387 (GII.4 genotype), with the cysteine-rich peptide … (norovirus VA387 (GII.4 genotype)). The experiment is described as above.

Turning to “6X(His)-tagged P-domain of the VP1 capsid protein of norovirus Norwalk strain (GI.1 genotype), with the CNGRC cysteine-rich domain (domain or fragment)”, the stoichiometry N in experiment [1] is more than 2.

Turning to “6X(His)-tagged P-domain of the VP1 capsid protein of norovirus VA387 (GII.4 genotype), with the cysteine-rich peptide … (domain or fragment)”, the stoichiometry N in experiment [2] is more than 2.

As usually defined, the stoichiometry N is a count of units in the complex or per binding partner.
